In patent US20240376193A1 (BIOSCEPTRE AUST, published 2024):

T1: E200 peptide
T1 construct: Antigen derived from dysfunctional P2X7 receptor
T1 peptide: GHNYTTRNILPGLNITC

B1: BIL03 VH only (other)
VH: EVQLLESGGGLVQPGGSLRLSCAASGFTFRNHDMGWVRQAPGKGLEWVSAISGSGGSTYYANSVKGRFTISRDNSKNTLYLQMNSLRAEDTAVYYCAEPKPMDTEFDYRSPGTLVTVSS
notes: Human single-domain VH tested without a light chain; also called BIL03 heavy chain; single domain heavy chain protein BIL03
B2: BIL03-Germline B1 (other)
VH: B1 VH
VL: DIQMTQSPSSLSASVGDRVTITCRASQSISSYLNWYQQKPGKAPKLLIYAASSLQSGVPSRFSGSGSGTDFTLTISSLQPEDFATYYCQQFDYMPLTFGQGTKVEIKR
notes: also called G B1; GB1
B3: BIL03-WT B1 (scFv format) (scFv, V domains shown)
VH: B1 VH
VL: DIQMTQSPSSLSASVGDRVTITCRASQYIYDYLNWYQQKPGKAPKLLIYAASYLQSGVPSRFSGSGSGTDFTLTISSLQPEDFATYYCQQYHHPSTFGQGTKVEIKR
notes: Tested in scFv format, so VH and VL sit in one polypeptide

Target: T1, E200 peptide
Experiment: binding kinetics on E200 peptide; method not stated

Row | Kd [nM] | Binder
1 | 127 | B1
2 | 82.7 | B2
3 | 24.2 | B3

Target: T1, E200 peptide
Experiment: binding kinetics on E200 peptide; method not stated; column 'affinity (nM) (E200)'

Row | Kd [nM] | Binder
4 | 127 | B1
5 | 83 | B2
6 | 24 | B3
